Target: VDR:RXRa (Homo sapiens, UniProt P11473;P19793 full;full)
Assay: no ligand; PBM; 270 nM : 90 nM RXRa; PBS pH 7.4, 2% milk, 0.02% Triton X-100, 1 mM DTT, BSA, 0.4 mg/ml salmon testes DNA
Settings: tags: His kept;His cleaved; copies: 1;1; label: surface-attached array probe
How it was run: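 Each nuclear receptor dimer, without ligand, was incubated for 1 h on custom Agilent 4×180K protein-binding microarrays. Binding was detected with antibodies against each partner (one per run), and scanned fluorescence was regression-normalized. The binding z-scores are referenced to random human genomic background probes.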

Sequence of VDR:RXRa (P11473 whole entry, chain 1 of 2): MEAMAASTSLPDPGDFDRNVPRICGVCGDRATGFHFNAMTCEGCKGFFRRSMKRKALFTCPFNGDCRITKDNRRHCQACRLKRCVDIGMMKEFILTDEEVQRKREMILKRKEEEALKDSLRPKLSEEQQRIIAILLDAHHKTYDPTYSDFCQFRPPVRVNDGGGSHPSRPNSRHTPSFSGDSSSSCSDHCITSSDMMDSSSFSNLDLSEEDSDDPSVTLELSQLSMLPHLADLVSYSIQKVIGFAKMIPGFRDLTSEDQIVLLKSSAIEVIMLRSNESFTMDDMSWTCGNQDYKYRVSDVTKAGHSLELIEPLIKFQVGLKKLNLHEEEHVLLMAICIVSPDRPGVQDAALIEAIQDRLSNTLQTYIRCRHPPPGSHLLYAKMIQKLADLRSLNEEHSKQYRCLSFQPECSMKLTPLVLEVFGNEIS
Sequence of VDR:RXRa (P19793 whole entry, chain 2 of 2): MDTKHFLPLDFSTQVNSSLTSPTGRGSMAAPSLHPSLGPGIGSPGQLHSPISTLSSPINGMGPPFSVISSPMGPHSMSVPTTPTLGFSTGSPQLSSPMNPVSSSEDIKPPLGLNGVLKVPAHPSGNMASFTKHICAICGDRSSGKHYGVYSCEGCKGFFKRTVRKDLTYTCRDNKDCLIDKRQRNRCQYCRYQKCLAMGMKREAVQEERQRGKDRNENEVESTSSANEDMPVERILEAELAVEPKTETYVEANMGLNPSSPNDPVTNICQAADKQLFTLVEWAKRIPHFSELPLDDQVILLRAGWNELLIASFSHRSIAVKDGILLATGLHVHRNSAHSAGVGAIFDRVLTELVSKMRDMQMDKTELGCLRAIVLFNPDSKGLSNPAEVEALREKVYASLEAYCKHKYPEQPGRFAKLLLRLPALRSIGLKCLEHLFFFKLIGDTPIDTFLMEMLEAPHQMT

B1: NRC3_wobSeed144_DR5_T19G_o1 (dsDNA)
DNA 1: GCTCGAGTAGGTTACCAAGGGGGCATTCAGCTTTCTGCGATTGACAGCGTAGAATGAAGG
DNA 2: CCTTCATTCTACGCTGTCAATCGCAGAAAGCTGAATGCCCCCTTGGTAACCTACTCGAGC
binding signal: 3.47 PBM z-score against 500 random probes

B2: NRC3_wobSeed100_DR4_A14C_o1 (dsDNA)
DNA 1: GCCCTACTGGGCCCCGAAAGGTCATTGATTCAGTGAGCGATTGACAGCGTAGAATGAAGG
DNA 2: CCTTCATTCTACGCTGTCAATCGCTCACTGAATCAATGACCTTTCGGGGCCCAGTAGGGC
binding signal: 3.44 PBM z-score against 500 random probes

B3: NRC3_wobSeed119_DR4_G27A_o1 (dsDNA)
DNA 1: GCGGAACGAGGGCATTCGAGTTGATAACATGGCGATGCGATTGACAGCGTAGAATGAAGG
DNA 2: CCTTCATTCTACGCTGTCAATCGCATCGCCATGTTATCAACTCGAATGCCCTCGTTCCGC
binding signal: 3.42 PBM z-score against 500 random probes

B4: NRC3_wobSeed125_DR5_G21T_o1 (dsDNA)
DNA 1: GCCCTTACGGGTCACTGACATGTTATAGCATTTGGAGCGATTGACAGCGTAGAATGAAGG
DNA 2: CCTTCATTCTACGCTGTCAATCGCTCCAAATGCTATAACATGTCAGTGACCCGTAAGGGC
binding signal: 3.4 PBM z-score against 500 random probes

B5: NRC3_wobSeed125_DR5_T6C_o1 (dsDNA)
DNA 1: GCCCTCACGGGTCACTGACAGGTTATAGCATTTGGAGCGATTGACAGCGTAGAATGAAGG
DNA 2: CCTTCATTCTACGCTGTCAATCGCTCCAAATGCTATAACCTGTCAGTGACCCGTGAGGGC
binding signal: 3.38 PBM z-score against 500 random probes

B6: NRC3_wobSeed69_DR2_C6G_o1 (dsDNA)
DNA 1: GCAGTGAAAGTTCACTAGGTAACGTAAGATTCAGCTGCGATTGACAGCGTAGAATGAAGG
DNA 2: CCTTCATTCTACGCTGTCAATCGCAGCTGAATCTTACGTTACCTAGTGAACTTTCACTGC
binding signal: 3.33 PBM z-score against 500 random probes

B7: NRC3_wobSeed99_DR4_T5C_o1 (dsDNA)
DNA 1: GCTCCCGGAGGACACGAAAGGTCAGAGCTCGACATCGCGATTGACAGCGTAGAATGAAGG
DNA 2: CCTTCATTCTACGCTGTCAATCGCGATGTCGAGCTCTGACCTTTCGTGTCCTCCGGGAGC
binding signal: 3.26 PBM z-score against 500 random probes

B8: NRC3_wobSeed4_DR0_T22C_o1 (dsDNA)
DNA 1: GCCCTACTGGGCCAAGGTCATCGATCAGTCAAAGCAGCGATTGACAGCGTAGAATGAAGG
DNA 2: CCTTCATTCTACGCTGTCAATCGCTGCTTTGACTGATCGATGACCTTGGCCCAGTAGGGC
binding signal: 3.17 PBM z-score against 500 random probes

B9: NRC3_wobSeed74_DR3_G17T_o1 (dsDNA)
DNA 1: GCTCTAGTTGGTCACGTAGGTCACACACGACGGGTAGCGATTGACAGCGTAGAATGAAGG
DNA 2: CCTTCATTCTACGCTGTCAATCGCTACCCGTCGTGTGTGACCTACGTGACCAACTAGAGC
binding signal: 3.15 PBM z-score against 500 random probes

B10: NRC3_wobSeed88_DR3_T25A_o1 (dsDNA)
DNA 1: GCTAGCCTAGGTCATGCGGGCCAGAATAGTGTCGGCGCGATTGACAGCGTAGAATGAAGG
DNA 2: CCTTCATTCTACGCTGTCAATCGCGCCGACACTATTCTGGCCCGCATGACCTAGGCTAGC
binding signal: 3.12 PBM z-score against 500 random probes

B11: NRC3_wobSeed110_DR4_C7A_o1 (dsDNA)
DNA 1: GCTCTGATAGGTCAACGATGGTCAGCTAATCTGCTAGCGATTGACAGCGTAGAATGAAGG
DNA 2: CCTTCATTCTACGCTGTCAATCGCTAGCAGATTAGCTGACCATCGTTGACCTATCAGAGC
binding signal: 3.1 PBM z-score against 500 random probes

B12: NRC3_wobSeed142_DR5_A5G_o1 (dsDNA)
DNA 1: GCATGCCAAGGTGATCGTGAGGTCGTTGATACTAACGCGATTGACAGCGTAGAATGAAGG
DNA 2: CCTTCATTCTACGCTGTCAATCGCGTTAGTATCAACGACCTCACGATCACCTTGGCATGC
binding signal: 3.08 PBM z-score against 500 random probes

B13: NRC3_wobSeed5_DR0_T6A_o1 (dsDNA)
DNA 1: GCCCTAACGGGTCAAGGTTATAGCACGGGTGGTACGGCGATTGACAGCGTAGAATGAAGG
DNA 2: CCTTCATTCTACGCTGTCAATCGCCGTACCACCCGTGCTATAACCTTGACCCGTTAGGGC
binding signal: 3.06 PBM z-score against 500 random probes

B14: NRC3_wobSeed6_DR0_T22A_o1 (dsDNA)
DNA 1: GCCCTAGCAGGCCAGGGTCACACAAGCATTTCGCTTGCGATTGACAGCGTAGAATGAAGG
DNA 2: CCTTCATTCTACGCTGTCAATCGCAAGCGAAATGCTTGTGTGACCCTGGCCTGCTAGGGC
binding signal: 3.03 PBM z-score against 500 random probes

B15: NRC3_wobSeed88_DR3_A28G_o1 (dsDNA)
DNA 1: GCTAGCCTAGGTCATGCGGGCCAGTATGGTGTCGGCGCGATTGACAGCGTAGAATGAAGG
DNA 2: CCTTCATTCTACGCTGTCAATCGCGCCGACACCATACTGGCCCGCATGACCTAGGCTAGC
binding signal: 3 PBM z-score against 500 random probes

B16: NRC3_wobSeed114_DR4_G10T_o1 (dsDNA)
DNA 1: GCAATACAGTGTCATCGTAGGCCAGAGTACGCACAGGCGATTGACAGCGTAGAATGAAGG
DNA 2: CCTTCATTCTACGCTGTCAATCGCCTGTGCGTACTCTGGCCTACGATGACACTGTATTGC
binding signal: 0.5 PBM z-score against 500 random probes

B17: NRC3_wobSeed81_DR3_C22G_o1 (dsDNA)
DNA 1: GCATCTCTAGGTAACCAAGTTGAGTGAATGCCGAACGCGATTGACAGCGTAGAATGAAGG
DNA 2: CCTTCATTCTACGCTGTCAATCGCGTTCGGCATTCACTCAACTTGGTTACCTAGAGATGC
binding signal: 0.49 PBM z-score against 500 random probes

B18: NRC3_wobSeed46_DR1_A15T_o1 (dsDNA)
DNA 1: GCTTACCAAGGTGATAGGTCGTTGATGCACGCCTTGGCGATTGACAGCGTAGAATGAAGG
DNA 2: CCTTCATTCTACGCTGTCAATCGCCAAGGCGTGCATCAACGACCTATCACCTTGGTAAGC
binding signal: 0.48 PBM z-score against 500 random probes

B19: NRC3_wobSeed61_DR2_G10T_o1 (dsDNA)
DNA 1: GCCGTCCAATGTCAGCAGGTCAGTGAAAGCGACGTGGCGATTGACAGCGTAGAATGAAGG
DNA 2: CCTTCATTCTACGCTGTCAATCGCCACGTCGCTTTCACTGACCTGCTGACATTGGACGGC
binding signal: 0.44 PBM z-score against 500 random probes

B20: NRC3_wobSeed17_DR0_T18C_o1 (dsDNA)
DNA 1: GCATATGTAGGTTAGGGCCATTCAGAAAGTAGGGAAGCGATTGACAGCGTAGAATGAAGG
DNA 2: CCTTCATTCTACGCTGTCAATCGCTTCCCTACTTTCTGAATGGCCCTAACCTACATATGC
binding signal: 0.42 PBM z-score against 500 random probes

B21: NRC3_wobSeed17_DR0_T18A_o1 (dsDNA)
DNA 1: GCATATGTAGGTTAGGGACATTCAGAAAGTAGGGAAGCGATTGACAGCGTAGAATGAAGG
DNA 2: CCTTCATTCTACGCTGTCAATCGCTTCCCTACTTTCTGAATGTCCCTAACCTACATATGC
binding signal: 0.41 PBM z-score against 500 random probes

B22: NRC3_wobSeed74_DR3_G20C_o1 (dsDNA)
DNA 1: GCTCTAGTTGGTCACGGAGCTCACACACGACGGGTAGCGATTGACAGCGTAGAATGAAGG
DNA 2: CCTTCATTCTACGCTGTCAATCGCTACCCGTCGTGTGTGAGCTCCGTGACCAACTAGAGC
binding signal: 0.37 PBM z-score against 500 random probes

B23: NRC3_wobSeed81_DR3_C22A_o1 (dsDNA)
DNA 1: GCATCTCTAGGTAACCAAGTTAAGTGAATGCCGAACGCGATTGACAGCGTAGAATGAAGG
DNA 2: CCTTCATTCTACGCTGTCAATCGCGTTCGGCATTCACTTAACTTGGTTACCTAGAGATGC
binding signal: 0.37 PBM z-score against 500 random probes

B24: NRC3_wobSeed142_DR5_G21T_o1 (dsDNA)
DNA 1: GCATACCAAGGTGATCGTGATGTCGTTGATACTAACGCGATTGACAGCGTAGAATGAAGG
DNA 2: CCTTCATTCTACGCTGTCAATCGCGTTAGTATCAACGACATCACGATCACCTTGGTATGC
binding signal: 0.3 PBM z-score against 500 random probes

B25: NRC3_wobSeed58_DR2_C13G_o1 (dsDNA)
DNA 1: GCATCGAAAGGTGGTGAGGTGAGTATACAGAAAGGCGCGATTGACAGCGTAGAATGAAGG
DNA 2: CCTTCATTCTACGCTGTCAATCGCGCCTTTCTGTATACTCACCTCACCACCTTTCGATGC
binding signal: 0.28 PBM z-score against 500 random probes

B26: NRC3_wobSeed114_DR4_G11A_o1 (dsDNA)
DNA 1: GCAATACAGGATCATCGTAGGCCAGAGTACGCACAGGCGATTGACAGCGTAGAATGAAGG
DNA 2: CCTTCATTCTACGCTGTCAATCGCCTGTGCGTACTCTGGCCTACGATGATCCTGTATTGC
binding signal: 0.25 PBM z-score against 500 random probes

B27: NRC3_wobSeed98_DR4_G20T_o1 (dsDNA)
DNA 1: GCACTAGTTGGTCAGCTGATGTCACACACAATTCGGGCGATTGACAGCGTAGAATGAAGG
DNA 2: CCTTCATTCTACGCTGTCAATCGCCCGAATTGTGTGTGACATCAGCTGACCAACTAGTGC
binding signal: 0.23 PBM z-score against 500 random probes

B28: NRC3_wobSeed130_DR5_G14T_o1 (dsDNA)
DNA 1: GCCTCGAAAGGTCTTGCTCAGGTGAGTATACCAAACGCGATTGACAGCGTAGAATGAAGG
DNA 2: CCTTCATTCTACGCTGTCAATCGCGTTTGGTATACTCACCTGAGCAAGACCTTTCGAGGC
binding signal: 0.2 PBM z-score against 500 random probes

B29: NRC3_wobSeed125_DR5_G10C_o1 (dsDNA)
DNA 1: GCCCTTACGCGTCACTGACAGGTTATAGCATTTGGAGCGATTGACAGCGTAGAATGAAGG
DNA 2: CCTTCATTCTACGCTGTCAATCGCTCCAAATGCTATAACCTGTCAGTGACGCGTAAGGGC
binding signal: 0.17 PBM z-score against 500 random probes

B30: NRC3_wobSeed125_DR5_G11C_o1 (dsDNA)
DNA 1: GCCCTTACGGCTCACTGACAGGTTATAGCATTTGGAGCGATTGACAGCGTAGAATGAAGG
DNA 2: CCTTCATTCTACGCTGTCAATCGCTCCAAATGCTATAACCTGTCAGTGAGCCGTAAGGGC
binding signal: 0.16 PBM z-score against 500 random probes

B31: NRC3_wobSeed93_DR3_T12A_o1 (dsDNA)
DNA 1: GCAGTCAAAGTACATCTAGGTAACGTAAGATATGCTGCGATTGACAGCGTAGAATGAAGG
DNA 2: CCTTCATTCTACGCTGTCAATCGCAGCATATCTTACGTTACCTAGATGTACTTTGACTGC
binding signal: 0.15 PBM z-score against 500 random probes

B32: NRC3_wobSeed18_DR0_C13A_o1 (dsDNA)
DNA 1: GCGATACAGGGTAAAGGCCAGAGTACGCGTATTGATGCGATTGACAGCGTAGAATGAAGG
DNA 2: CCTTCATTCTACGCTGTCAATCGCATCAATACGCGTACTCTGGCCTTTACCCTGTATCGC
binding signal: 0.02 PBM z-score against 500 random probes

B33: NRC3_wobSeed100_DR4_A24T_o1 (dsDNA)
DNA 1: GCCCTACTGGGCCACGAAAGGTCTTTGATTCAGTGAGCGATTGACAGCGTAGAATGAAGG
DNA 2: CCTTCATTCTACGCTGTCAATCGCTCACTGAATCAAAGACCTTTCGTGGCCCAGTAGGGC
binding signal: -0.14 PBM z-score against 500 random probes

From PMC6555819, “Comprehensive study of nuclear receptor DNA binding provides a revised framework for understanding receptor specificity”
